# Reference: the supplement of paper PMC9170038
# Tested on: K4 kissing-loop RNA reporter
# Experiment: apparent KD of K4 kissing-loop reporter; higher = weaker reporter binding
# Conditions: Eterna round: R107
# Procedure: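 RNA-MaP round R107: designed RNA switches with theophylline, tryptophan, arginine or FMN aptamers are transcribed on-chip within common flanks. They are titrated with a labelled K4 kissing-loop RNA reporter in RNA-MaP buffer (100 mM Tris pH 7.5, 80 mM KCl, 4 mM MgCl2), without ligand or with the indicated ligand. Median apparent KD per design.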
# [1] = input ligand: theophylline 20 uM
# [2] = input ligand: tryptophan 2.4 mM
# 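Further: bound reporter read as fluorescence of individual clusters on recovered sequencing chips by microscopy, with normalized cluster intensities fitted with a binding model.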
Sequence,apparent KD of K4 kissing-loop reporter (input ligand: FMN 200 uM),apparent KD of K4 kissing-loop reporter (input ligand: arginine 13.2 mM),apparent KD of K4 kissing-loop reporter (input ligand: none),apparent KD of K4 kissing-loop reporter [1],apparent KD of K4 kissing-loop reporter [2]
AAGUGUGUGGCGGCCGCCACUAGAAUCCAGUGAUGUUGGAGUUAUCAAAUAAAUGAUAAUCAACAUAGGACCGGGCCAUAUAGAA [Same State - Tryptophan B (Freestyle 4)],690 nM,430 nM,626 nM,523 nM,469 nM
AAUAAAAUCACGGCCGCCACUGAUUAGCAUAUUAGGAGUGAUGUUUCUAUGACUAUAUAAUUGAACAGGACCGGGUGAAUAUUUA [#20 K4 Tryptophan B Exclusion],424 nM,294 nM,417 nM,314 nM,400 nM
AAUAAGGUCGCCGAUACCAGCGCAGGCAGAGCAAAGCUCUGCCAGGUAGUGAUGUUACCGCGCCCUUGGCAGCGGUGGCACGACC [Omei KL Theo B SS C v2],523 nM,357 nM,516 nM,459 nM,579 nM
AAUAAUGAUGUUUAGGAUUUCCGAAUGGAAGGAGCGUGCGAAAGCACAGGUAGGUCGCCAGUGAUGUUGGGACCUGAGCAUCAAA [#SwitchBubble 6 #K4Late],681 nM,514 nM,703 nM,807 nM,629 nM
AAUAGAUCAUUAUAGUGAUAAAUGCCUGAUACCAGUGAGAGAUGGCACCCUUGGCAGCAGAGAUGAGUGAUGUUCAGACUGUAAA [theeternabot_sameState_KL_Theo_A_11],114 nM,118 nM,104 nM,123 nM,91 nM
AAUAUAGUGAUGUUAUAUAAGAAGGAGUUACGAGGACCGGUACGGCCGCCACUCGAAACGAGUGAGGGUUUGGGAGAUUGGGCCC [SSTryptA.J],493 nM,310 nM,451 nM,322 nM,384 nM
AAUAUAGUGAUGUUAUAUAAGGAAAGAAGGCGAGGACCGGUACGGCCGCCACUCGAAAGGUGAGAAGGUGGCGAAGAAGAAAGAA [ExTryptoA.B],312 nM,280 nM,331 nM,433 nM,377 nM
AAUGUACAAGUGAUGUUUGUACUUUCCGAAGGAGCGUCUAAUAAGACAGGUAGGUCGCGGAUUCUCUAAAUUAUCAGGUCAUUAA [JR_ExcArginiA_Sub018],91.8 nM,85.4 nM,94.3 nM,85.6 nM,87.4 nM
AAUGUACAGGGAAGGAGCGUCGUCCAGUGAUGUUGGAGUUAAAUACCAGUGAUGUUGGUUAGACAGGUAGGUCGCCCUAAAGUGC [Exclusion Arginine B Gf 3],104 nM,80.2 nM,92 nM,95 nM,88 nM
AAUUAAUACAGAAGGAGCGUGAAAUUAUCUAUUUUUUUUUUAGCUAGUGAUGUUAGCAUUUCACAGGUAGGUCGCUGUAUAUUUA [JR_SSArginiB_Sub009],148 nM,142 nM,166 nM,149 nM,138 nM
AAUUUAUAUUUAUUCUUUAAAUGUUCAGAAGGAGCGUGAAUUAUCACAGGUAGGUCGCUGGGCUAGUGAUGUUGGCUAUAUACUA [whbob_Ex_Arginine_A_2t125],150 nM,186 nM,162 nM,196 nM,124 nM
AAUUUAUUAACUGAUACCAGACUUUAGCGCGUUUAUAAGUCAAGUGAUGUUUGACUAAUUGUCCCUUGGCAGCAGUAUUUAUUAA [JR_SSTheophyB_Sub021],233 nM,210 nM,216 nM,157 nM,197 nM
ACAGGAAUCUUUGAUACCAGAACCCGUCUACCUCCAUCCUUGGAGCAUAGUGAUGUUGUGUUCCCUUGGCAGCAAUAGGGCACAU [theeternabot_exclusion_KL_Theo_B_34],711 nM,498 nM,632 nM,597 nM,644 nM
ACAGGAUCGAAAGAUCCUGAGCAGUCAAAACGAGGACCGGUACGGCCGCCACUCGAAUAAGAGAGUGAUGUUCUCGACUGCAAAA [Omei inspired 10 - Reversed #K4Late],939 nM,826 nM,1210 nM,1050 nM,223 nM
ACAGGAUCGAAAGAUCCUGAGCAGUCUAACCGAGGACCGGUACGGCCGCCACUCGGAGUGAUGUUCCGAGGACUGCAAAAUAAAA [#SwitchBubble 2 #CoaxialStacking],330 nM,305 nM,298 nM,329 nM,795 nM
ACAGGAUCGAAGAUCCUGAGCAGUCAGGUCCGAGGACCGGUACGGCCGCCACUCGGAGUGAUGUUCCGAAGACUGCAAAAUAAAA [#SwitchBubble 4],853 nM,455 nM,1110 nM,968 nM,338 nM
ACAUGAGUGAUGUUCAUGUGGAGCAGGGUACGAGGACCGGUACGGCCGCCACUCGAGAGUUAUGACGAGUUAAUGGCAACGAUGU [KL-Tryp-A8 #analogue],122 nM,90.2 nM,98.8 nM,96.3 nM,103 nM
ACAUGUUCCAGUGAUGUUGGCGUACGUGAUACCAGACGAAUAAAAGUCCCUUGGCAGCACAAAUAAGCCAAGAUAGGUGAAUGAU [#04 K4 Theophylline A Exclusion],403 nM,272 nM,495 nM,538 nM,405 nM
ACCAUCAAAGAUGGCCAGGACUCCGCUGAUACCAGUGUGAAAACACUCCCUUGGCAGCAGGUGAGUGAUGUUCACAGUCCAUGGA [Omel KL Theo A SS B v3],145 nM,116 nM,150 nM,146 nM,143 nM
ACCCGUAGGAUACGGAGGUGUAAAUGGGUAUAGGAUAUCUAGAAAUAGAGAAGGAUACCAGUGAUGUUGGUUCCGUAUAUCUUAA,272 nM,137 nM,105 nM,90 nM,119 nM
ACCCUACUCGGGCGGCUAUACAGUUAAGCUAAGGAUAUGUAUUCGUACAGAAGGUAGAAGAAGCCGAGUGAUGUUCGACACGCCC [theeternabot_sameState_KL_FMN_A_24],557 nM,386 nM,544 nM,293 nM,413 nM

Sequence,apparent KD of K4 kissing-loop reporter (input ligand: FMN 200 uM),apparent KD of K4 kissing-loop reporter (input ligand: arginine 13.2 mM),apparent KD of K4 kissing-loop reporter (input ligand: none),apparent KD of K4 kissing-loop reporter [1],apparent KD of K4 kissing-loop reporter [2]
ACCUACGAUCACAAAAGUGAUUGUAGGAUCUAGGAUAUGCUGAAGAGCAGAAGGAGAGUGAUGUUCUCAUCUCACGAAAGUGAGA [whbob_Ex_FMNA__2th189],408 nM,189 nM,216 nM,263 nM,201 nM
ACCUGUAGCAGAAGGAGCGACAGUUAUUCUGAUAGAACUCUGAGUGAUGUUCAGAACAACUGUCAGGUAGGUCGCUGAUACAGGU [Arg B Ex t8a],577 nM,370 nM,560 nM,512 nM,583 nM
ACCUGUGACUGAAGGAGCGUCUACUCCAGAGGAUGGAGUGAUGUUCCACUUUAAUGGAGUGGACAGGUAGGUCGCAGUCAUAGGA [Arg B SS t6],126 nM,94.5 nM,108 nM,88.7 nM,115 nM
ACCUUUUUUGCCAGUGAUGUUGGACAGGAAGGAGCGGGCAUAAGCCCAGGUAGGUCGCCUGUCAACUUUCUUAUAGCCCUAAGGU [KL-XArg-A17],365 nM,270 nM,507 nM,479 nM,349 nM
ACGCUGGUGAAUAACACUAGCGAAUAAUUCCGAGGACCGGUACGGCCGCCACUCGGCUAACUGCGAGUGAUGUUCGAUAAUAAAA [Mat - Mod of OpenEnded 3 - D10],78.5 nM,158 nM,103 nM,156 nM,57.5 nM
ACGUAGUUCUAGGAUACCAGCCAAGAUGCCAGGACAAAAGUCCUGGCAGCCAGUGAUGUUGGCCCUUGGCAGCCUAGAACUACGA [Omei KL Theo B Exc B v9],149 nM,115 nM,132 nM,121 nM,120 nM
ACGUCUCGUUAAAUCGUGGUUUCGAUCGAUACCAGUAGCGAGAGUUACCCUUGGCAGCGAAAUGAGUGAUGUUCAUGAAAGAAGA [KL-XTheoA9],65.2 nM,109 nM,69.4 nM,130 nM,57.3 nM
ACUACGAAGACGGCCGCCACUGAUAUUCGUAGAUCCAUCAUUACAUGAGUGAUGUUCAUGUAUAUCAGGACCGGGUCAAGAUGGU [KL-XTryp-B17 #analogue],184 nM,146 nM,164 nM,162 nM,226 nM
ACUGGGUUGACGAAAGUCAACAAAAGAGAAGGAGCGCACGAAAGUGCAGGUAGGUCGCUCAUCCAGUGAUGUUGGAUCAUCCAGA [#SwitchBubble 17 #K4Late],444 nM,679 nM,626 nM,392 nM,305 nM
AGAACUGUCUUGGAUACCAGUGAUGUUGGUAUCGAUGUGUGAGUGCAAAGCGUCCCACAUCGCCCUUGGCAGCUAAGACAGUUCA [Omei KL Theo B Exc A v5],331 nM,292 nM,341 nM,375 nM,292 nM
AGAAGAUAUCAAGAUACCAGCUCCCGGCCCAAAACCCAGAUACACGAGUGAUGUUCGUUCAGCCCUUGGCAGCUUGCCUAGUUCU [theeternabot_sameState_KL_Theo_B_6],94.4 nM,149 nM,125 nM,163 nM,89.4 nM
AGACCACAAAGUGGUCAGUGUUCGCUCCGGCGAGGACCGGUACGGCCGCCACUCGCGAGUGAUGUUCGCGAGCGGAGCGAACACA [Omei KL Tryp A Exc A v2],101 nM,86.6 nM,99.9 nM,88.9 nM,95.1 nM
AGACUACCACACUGUCAAUAGACAGUGUACUAGGAUAUGCUGAUAAGCAGAAGGAGUGAUGUUCCCAGGUAGUCAAUAAAAUAAU [FmnAX 13 U28+C66],274 nM,189 nM,243 nM,270 nM,225 nM
AGAUCUGUAACAGAUACCAGAGGACGAUGAUCGAACAGUGAUGUUAUCUGUUAGUCGUCGCUCCCUUGGCAGCUGUUACAGAUCA [Omei KL Theo B SS B v4],106 nM,46.2 nM,55.5 nM,72.1 nM,84.9 nM
AGAUUCGACACGGCCGCCACUUGUGGUGGAUUAUCCUAUGUCGAACAUGAGUGAUGUUCAUGUACAAGGACCGGGUGUUGAGUCU [KL-XTryp-B6 #analogue],476 nM,373 nM,421 nM,438 nM,492 nM
AGCGAUGUUUUCUCUAAGAGUGAUGUUUUUCGAGGACCGGUACGGCCGCCACUCGAAUAAAGUGUGUGGUAGUGAGCUGUUGACA [#17 K4 Tryptophan A Exclusion],1150 nM,606 nM,1110 nM,648 nM,804 nM
AGCUCAGAGUGACUCGAUAAGAGUCACAAACGAGGACCGGUACGGCCGCCACUCGAAACAAAGAGAGUGAUGUUCUCGCUGAGCA [FiskerMod 10 - Jieux - Same State Tryptophan A],319 nM,121 nM,176 nM,207 nM,713 nM
AGGACUCUUGUGGGUACGCAUCUAGCCGAUACCAGACUUCCAUAUGUCCCUUGGCAGCGGCAGUGAUGUUGUCGUUACGCCAUCA [theeternabot_exclusion_KL_Theo_A_34],140 nM,133 nM,147 nM,212 nM,131 nM
AGGAGCGUGCGAUGUAAAUCGCACGCUCCACGAGGACCGGUACGGCCGCCACUCGCUCGUGCAGAGUGAUGUUCUGCCGGCGAAU [#2 Same State - Tryptophan A Attempt #24 (HarryS)],306 nM,202 nM,270 nM,248 nM,260 nM
AGGAUCCGUCGACAAAAGUCGACAUAAACCAAGGAUAUGACGAAAGUCAGAAGGUGGUCAUAAGACCAGUGAUGUUGGUGGAUCC [FmnA 11 #SwitchBubble #K4Late],984 nM,268 nM,467 nM,309 nM,379 nM
AGGCACGAGCAAGGAUAUUGAGUAGAGUGAUGUUCUGCCUAAGUUGGCUCGUAAGAGCCUUCUUAGCGAGAAGGUGCUCGUGCCU [#2 Same State - FMN A Attempt #27 (HarryS)],297 nM,513 nM,824 nM,611 nM,665 nM
